Experimental data taken from the supplement of paper PMC9112550, “Optimization of the antimicrobial peptide Bac7 by deep mutational scanning” (BMC Biology, 2022).
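Note: peptides expressed intracellularly from a pBAD plasmid library in pooled LB shake-flask culture, induced with 0.3% L-arabinose, DNA abundance read by NGS, three biological replicates, DESeq2 with apeglm shrinkage.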

What follows are sequences tested on Escherichia coli TOP10 (assay: shrunken log2 fold change of peptide-encoding DNA abundance (4.5 h post-induction vs induction); higher = less antimicrobial activity (less host growth inhibition)). Details: time post-induction: 4.5 h; library: site-saturation at positions 5, 18, 19, 20.
RRIRIRPPRLPRPRPRPSTCPRP was tested, and the “shrunken log2 fold change” value was -0.548.
In the case of RRIRQRPPRLPRPRPRPETGPRP, the “shrunken log2 fold change” value is reported as 0.0496.
For RRIRCRPPRLPRPRPRPRAVPRP, the “shrunken log2 fold change” value was 0.405.
For RRIRIRPPRLPRPRPRPNTIPRP, the “shrunken log2 fold change” value was -0.355.
With RRIRMRPPRLPRPRPRPFIWPRP the “shrunken log2 fold change” value was 0.0163.
In the case of RRIRRRPPRLPRPRPRPACCPRP, the “shrunken log2 fold change” value is reported as 0.714.
RRIRQRPPRLPRPRPRPCQRPRP was tested, and the “shrunken log2 fold change” value was -0.0113.
RRIRLRPPRLPRPRPRPEPVPRP was tested, and the “shrunken log2 fold change” value was 2.62.
RRIRMRPPRLPRPRPRPFFDPRP was tested, and the “shrunken log2 fold change” value was 0.232.
With RRIRGRPPRLPRPRPRPMRHPRP the “shrunken log2 fold change” value was 0.559.
RRIRARPPRLPRPRPRPAGYPRP was tested, and the “shrunken log2 fold change” value was 0.399.
RRIRVRPPRLPRPRPRPCYCPRP was tested, and the “shrunken log2 fold change” value was -0.32.
With RRIRSRPPRLPRPRPRPMPEPRP the “shrunken log2 fold change” value was 0.376.
For RRIRHRPPRLPRPRPRPLHYPRP, the “shrunken log2 fold change” value was -0.284.
For RRIRSRPPRLPRPRPRPRDFPRP, the “shrunken log2 fold change” value was 0.528.
In the case of RRIRWRPPRLPRPRPRPKPDPRP, the “shrunken log2 fold change” value is reported as 0.115.
With RRIRCRPPRLPRPRPRPLCVPRP the “shrunken log2 fold change” value was -0.481.
For RRIRERPPRLPRPRPRPINNPRP, the “shrunken log2 fold change” value was -0.944.
In the case of RRIRIRPPRLPRPRPRPARHPRP, the “shrunken log2 fold change” value is reported as 0.0869.
With RRIRYRPPRLPRPRPRPIFNPRP the “shrunken log2 fold change” value was -0.89.
In the case of RRIRERPPRLPRPRPRPSTEPRP, the “shrunken log2 fold change” value is reported as 0.0386.
RRIRVRPPRLPRPRPRPDAIPRP was tested, and the “shrunken log2 fold change” value was 0.286.
For RRIRPRPPRLPRPRPRPYAMPRP, the “shrunken log2 fold change” value was -0.265.
In the case of RRIRRRPPRLPRPRPRPCVWPRP, the “shrunken log2 fold change” value is reported as 0.999.
With RRIRWRPPRLPRPRPRPTYLPRP the “shrunken log2 fold change” value was 0.0592.
RRIRVRPPRLPRPRPRPQEAPRP was tested, and the “shrunken log2 fold change” value was -0.0448.
With RRIRKRPPRLPRPRPRPRNTPRP the “shrunken log2 fold change” value was -0.0381.
RRIRVRPPRLPRPRPRPQERPRP was tested, and the “shrunken log2 fold change” value was -0.119.
With RRIRYRPPRLPRPRPRPMRGPRP the “shrunken log2 fold change” value was 0.156.
In the case of RRIRDRPPRLPRPRPRPKEIPRP, the “shrunken log2 fold change” value is reported as 0.0219.
RRIRGRPPRLPRPRPRPINCPRP was tested, and the “shrunken log2 fold change” value was -0.0247.
RRIRKRPPRLPRPRPRPPEAPRP was tested, and the “shrunken log2 fold change” value was 0.948.
RRIRSRPPRLPRPRPRPNMSPRP was tested, and the “shrunken log2 fold change” value was -0.315.
RRIRVRPPRLPRPRPRPDSDPRP was tested, and the “shrunken log2 fold change” value was -0.0912.
With RRIRQRPPRLPRPRPRPWTKPRP the “shrunken log2 fold change” value was -0.00887.
For RRIRMRPPRLPRPRPRPGRTPRP, the “shrunken log2 fold change” value was 0.894.
For RRIRCRPPRLPRPRPRPGLSPRP, the “shrunken log2 fold change” value was -0.248.
In the case of RRIRQRPPRLPRPRPRPDYVPRP, the “shrunken log2 fold change” value is reported as 0.07.
RRIRERPPRLPRPRPRPHILPRP was tested, and the “shrunken log2 fold change” value was -0.245.
With RRIRSRPPRLPRPRPRPKAFPRP the “shrunken log2 fold change” value was -0.0206.
For RRIRPRPPRLPRPRPRPFCVPRP, the “shrunken log2 fold change” value was 0.156.
With RRIRERPPRLPRPRPRPWWIPRP the “shrunken log2 fold change” value was -0.021.
With RRIRNRPPRLPRPRPRPVHDPRP the “shrunken log2 fold change” value was 0.068.
In the case of RRIRNRPPRLPRPRPRPNHMPRP, the “shrunken log2 fold change” value is reported as -0.16.
In the case of RRIRPRPPRLPRPRPRPPLEPRP, the “shrunken log2 fold change” value is reported as 0.179.
In the case of RRIRWRPPRLPRPRPRPLNNPRP, the “shrunken log2 fold change” value is reported as -0.323.
RRIRQRPPRLPRPRPRPLGRPRP was tested, and the “shrunken log2 fold change” value was -0.00354.
In the case of RRIRKRPPRLPRPRPRPQDMPRP, the “shrunken log2 fold change” value is reported as -0.036.
In the case of RRIRSRPPRLPRPRPRPYKEPRP, the “shrunken log2 fold change” value is reported as -0.0146.
With RRIRWRPPRLPRPRPRPCDIPRP the “shrunken log2 fold change” value was -0.143.
For RRIRERPPRLPRPRPRPRNPPRP, the “shrunken log2 fold change” value was -0.0856.
RRIRCRPPRLPRPRPRPHTFPRP was tested, and the “shrunken log2 fold change” value was -0.467.
With RRIRQRPPRLPRPRPRPRWHPRP the “shrunken log2 fold change” value was 0.197.
With RRIRPRPPRLPRPRPRPDWCPRP the “shrunken log2 fold change” value was -0.179.
For RRIRFRPPRLPRPRPRPSLVPRP, the “shrunken log2 fold change” value was -0.167.
With RRIRDRPPRLPRPRPRPEQLPRP the “shrunken log2 fold change” value was 0.104.
RRIRMRPPRLPRPRPRPHMQPRP was tested, and the “shrunken log2 fold change” value was -0.122.
RRIRCRPPRLPRPRPRPAGVPRP was tested, and the “shrunken log2 fold change” value was 0.259.
With RRIRKRPPRLPRPRPRPHATPRP the “shrunken log2 fold change” value was 1.06.
RRIRARPPRLPRPRPRPGHDPRP was tested, and the “shrunken log2 fold change” value was 0.215.
In the case of RRIRQRPPRLPRPRPRPNIRPRP, the “shrunken log2 fold change” value is reported as 0.0516.
In the case of RRIRTRPPRLPRPRPRPTLQPRP, the “shrunken log2 fold change” value is reported as 0.336.
With RRIRIRPPRLPRPRPRPCKRPRP the “shrunken log2 fold change” value was 0.0279.
In the case of RRIRGRPPRLPRPRPRPPMQPRP, the “shrunken log2 fold change” value is reported as 1.12.
With RRIRKRPPRLPRPRPRPEAMPRP the “shrunken log2 fold change” value was 0.0888.
With RRIRKRPPRLPRPRPRPEQHPRP the “shrunken log2 fold change” value was 0.586.
For RRIRKRPPRLPRPRPRPGQPPRP, the “shrunken log2 fold change” value was 0.0678.
RRIRMRPPRLPRPRPRPFVFPRP was tested, and the “shrunken log2 fold change” value was 0.0629.
In the case of RRIRYRPPRLPRPRPRPACNPRP, the “shrunken log2 fold change” value is reported as -0.238.
For RRIRCRPPRLPRPRPRPRGYPRP, the “shrunken log2 fold change” value was 0.471.
RRIRSRPPRLPRPRPRPCMTPRP was tested, and the “shrunken log2 fold change” value was -0.102.
For RRIRPRPPRLPRPRPRPDTNPRP, the “shrunken log2 fold change” value was -0.239.
In the case of RRIRFRPPRLPRPRPRPIGEPRP, the “shrunken log2 fold change” value is reported as 0.0336.
RRIRNRPPRLPRPRPRPVRFPRP was tested, and the “shrunken log2 fold change” value was 0.0789.
For RRIRQRPPRLPRPRPRPNIPPRP, the “shrunken log2 fold change” value was -0.262.
